# Measured values: the RNAGym collection of RNA variant scans (doi:10.1073/pnas.2313332121)
# This sample holds only a part of the variants without activity.
# B1: TPR 5TU (parent)
# chain: GGAUCUUCUCGAUCUAACAAAAAAGACAAAUCUGCCACAAAGCUUGAGAGCAUCUUCGGAUGCAGAGGCGGCAGCCUUCGGUGGCGCGAUAGCGCCAACGUUCUCAACUAUGACACGCAAAACGCGUGCUCCGUUGAAUGGAGUUUAUCAUG
# Variants of: B1
# Assay: polymerase ribozyme fitness, log enrichment relative to wild type (log ratio); higher = more active; in vitro selection for triplet polymerase activity
# How it was run: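 Frozen incubation at −7 °C formed the core of a single, triplicate in vitro selection round applied to PCR-built, transcribed mutant libraries of each subunit of a heterodimeric triplet polymerase ribozyme. Extended constructs were gel-excised, captured with streptavidin beads and amplified by RT-PCR, and input and output libraries were Illumina-sequenced with a filter of ≥10 input reads and ≥1 read per output. Fitness is the logarithm of genotype enrichment relative to wild-type enrichment, with inverse-variance-weighted replicate averaging, and the logarithm is base 2.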
row,Variant,polymerase ribozyme fitness (log ratio)
1,GGAUCUUCUCGAUCUAACAAAAAAGACAAAUCUGCCACAAAGCUUGAGAGCAUCUUCGUAUGCAGAGGCGGCAGCCUUCGGUGGCGCGAUAGCGCCAACGUUCUCAACUAUGACACGCAGAACGCGUGCUCCGUUGAAUGGAGUUUAUCAUG [G59U A120G],-0.485
2,GGAUCUUCUCGAUCUAACAAAAAAGACAAAUCUGCCACAAAGCUUGAGAGCAUCUUCGGAUGCAGAGGCGGCAGCCUUCGGUGGCGCUAUAGCGGCAACGUUCUCAACUAUGACACGCAAAACGCGUGCUCCGUUGAAUGGAGCUUAUCAUG [G88U C95G U144C],≤ -4.2
3,GGAUCUUCUCGAUCUAACAAAAAAGACAAAUCUGCCACAAAGCUUGAGAGCAUCUUCGGAUGCAGAGGCGGCAGCCUUCGGUGGUGCGAUAGCGCCAACGUUCUCAACUAUGACACGCAAAACGCGUGCUCCGUUCAAUGGAGUUUAUCAUG [C85U G136C],-3.29
4,GGAUCUUCUCGAUCUAACAAAAAAGACAAAUCUGCCACAAAGCUUGAGAACAUCUUCGGAUGCAGAGGCGGCAGCCUUCGGUGGCGCGAUAGCGCCAACGUUCUCAACUAUGACACGCAGAUCGCGUGCUCCGUUGAAUGGAGUUUAUCUUG [G50A A120G A122U A150U],-2.03
5,GGAUCUUCUCGAUCUGACAAAAAAGACAAAUAUGCCAGAAAGCUUGAGAGCAUCUACGGCUGCAGAGGCGGCAGCCUUCGGUGGCGAGAUAGCGCCAACGUUCUCAACUAUGACACGCAAAAUGCGUGCUCCGUUGAAUGGAGUUUAUCCUG [A16G C32A C38G U56A A60C C87A C123U A150C],≤ -4.2
6,GGACCUUCUCGAUCUAACAAAAAAGACAAAUCUGCCACAAAGCUUGAGAGCAUCUUCGGAUGCAGAGGCGGCAGCCUUCGGUGGAGCGAUAGCGCCAACGUUCUCAACUAUGACACGCAAAACGCGUGCUCCGUUGAAUGGAGUUUAUCAUG [U4C C85A],-1.34
7,GGAUCUUCUCGAUCUAACAAAAAAGACAAAUCUGCCACAAAGCUUGAGAGCAACUUCGGAUGCAGAGGCGGCAGCCUUCGGGGGCGCGAUAGCGCCAACAUUCUCAACUAUGACACGCAAAACGCGUGCUCCGUUGAAUGGAGUUUAUCAUG [U53A U82G G100A],≤ -4.2
8,GGAUCUUCUCGAUCUAACAAAAAAGACAAAACUGCCACAAAGCUUGAGAGCAUCUUCGGAUGCAGAGGCGGCAGGCUUCGGUGGCGCGAUAGCGUCAACGUUCUCAACUAUGACACGUAAAACGCGUGCUCCGUUGAAUGGAGUUUAUCAUG [U31A C75G C95U C118U],-3.7
9,GGAUCUUCUCGAUCUAACAAACAAGACAAAUCUGCCACAAAGCUUGAGAGCAUCUUCGGAUGCAGAGGCGGCAGCCUUCGGUGGCGCGAUACCGCCAACGUUCUCAACUAUGAUACGCAAAACGCGUGCUCCGUUGAAUGGAGUUUAUCCUG [A22C G92C C114U A150C],≤ -4.2
10,GGAUCGUCUCGAUCUAACAAAAAAGACAAAUCUGCCACAAAGCUUGAGAGCAUCUUCGGAUGCAGAGGCGGCAGCCUUCCGUGGCGCGAUAGCGCCAACGUUCUCAACUAUGACACGCAAAACGCGUGCUCCGUUGAAUGGAGUUUAUAAUG [U6G G80C C149A],≤ -4.2
11,GGAUCUUCUCGAUCUAACAAAAAAGACAAAUCUGCCACAAAGCUUGAGAGCAUCUUCGGAUGCAGAGGCGGCAGUCUUCGGUGGCGCGAUAUCGCCAACGUUCUCAACUAUGACACGCAAAACGCGUGCUCCGUUGAAUGGAGUUUAUCAUG [C75U G92U],-2.38
12,GGAUCUUCUCGAUCUAACAAAAAAGACAAAUCUGCCACAAAGCUUGAGAGCAUCUUCGGAUGCAGAGGCGGCAGCCUUCGGUGGCGCGAUAGCGCCAAGGUUCUCAACUAUGACAUGCAAAACGCGUGCUCCGUUGAAUGGAGUUUAUCAUG [C99G C116U],-0.76
13,GGAUCUUCUCGCUCUAACAAAAAAGACAAAUCUGCCACAAAGCUUGAGAGCAUCUUCGGAUGCAGAGGCGGCAGCAUUCGGUGGCGCGAUUGCGCCAACGUUCUCAACUAUGACACGCAAAACGCGUGCUCCGUUGAAUGGAGUUUAUCAUG [A12C C76A A91U],≤ -4.2
14,GGAUCUUCUCGAUCUAACAAAAAAGACAAAUCUGCCACAAAGCUUGAGAGCAUCUACGGAUGCAGAGGCGGCAGCCUUCGGUGUCGCGAUAGCGCCAACGUUCUCAACUAUGACACGCAAAACGCGUGCUCCGUUGAAUGGAGUUUAUCAUG [U56A G84U],-1.11
15,GGAUCUUCUCGAUCUAACAAAAAAGACAAAUCUGCCACAAGGCUUGAGAGCAUCUUCGGAUGCAGAGGCGGCAGCUUUCGGUGUAGCGAUAGCGCCUACAUUCUCAACUAUGACACGCAAAACGCGUGCUCCGUUGAAUUGAGUUUAUCAUG [A41G C76U G84U C85A A97U G100A G140U],≤ -4.2
16,GGAUCUUCUCGAUCUAACAAAAAAGACAAAUCUGCCACAAAGCUUGAGAGCAUCUUCGGCUGCAGAGGCGGCAGCCUUCGGUGGCGCGAUAGCGCUAACGUUCUCAACUAUGACACGCAAAACGCGUGCUCCGUUGAAUGGCAUUUAUCAUG [A60C C96U A142C G143A],≤ -4.2
17,GGAUCUUCUCGAUCUAACAAAAAAGACAAAUCUGCCACAAAGCUUGAGAGCAGCUUCGGAUGCAGAGGCGGCAGCCUUCGGUGGCGCGAUAGCGCCAACGUUAUGAACUAUGACACGCAAAACGCGUGCACCGUUGAAUGGAGUUUAUCAUG [U53G C103A C105G U130A],≤ -4.2
18,GGAUCUUCUCGAUCUAACAAAAAAGACAAAUCUGCCACAAAGCUUGAGAGCAUCUUCGGAUACAGAGGCGGCAGCCUUCGGUGGCGCGAUAGAGCCAACGUUCUCAACUAUGACACGCAAAACGCGUGCUCCGUUGAAUGGAGUUUAUCAUG [G62A C93A],-1.93
19,GGAUCUUCUCGAUCUAACAAAAAAGACAAAUCUGCCACAAAGCUUGAGAGCAUCUUCCGAUGCAGAGGCGGCAGCGGUCGGUGGCGCGAUAGCGCCAACGUUCUCAACUAUGACACGCAAAACGCGUGCUCCGUUGAAUGGAGUUUAUCAUG [G58C C76G U77G],≤ -4.2

row,Variant,polymerase ribozyme fitness (log ratio)
1,GGAUCUUCUCGAUCUAACAAAAAAGACAAAUCUGCCACAAAGCUUGAAAGCAUCUUCGGAUACAGAGGCGGCUGCCUUCGGUGGCGCGAUGGCGGCAACGUUCUCAACUAUGACACGCAAAACGCGUGCUCCGUUGAAAGGCGUUUAUCAUG [G48A G62A A73U A91G C95G U139A A142C],≤ -4.2
2,GGAUCUUCUCGGUCUAACAAAAAAGACAAAUCUGCCACAAAGCUUGAGAGCAUCUUCGGAUGCAGAGGCGGCAGCCUUCGGUGGCGCGAUACCGCCAACGUUCUCAGCUAUGACACGCAAAACGCGUGCUCCUUUGAAUGGAGUUUAUCAUG [A12G G92C A107G G133U],≤ -4.2
3,GGAUCUUCUCGAUCUAACAUAAAAGACAGAUCUGCCACAAAGCUUGAGAGCGUCUUCGGAUGCAGAGGCGGCAGCCUUCGGUGGCGCGUUAGCGCAAACGUUCUCAACUAUGACACGCAAAACGCGUGCUCCGUUGAAUGGAGUUUAUCAUG [A20U A29G A52G A89U C96A],≤ -4.2
4,GGAUCUUCUCGAUCUAACAAAAAAGACAAAUCUGCCACACAGCUUGAGAGCGUCUUCGGAUGCAGAGGCGGCAGCCUUCUGUGGCGCGAUAGCGCCAACGUUCUCAACUAUGAGACGCAAAACGCGUUCUCCUUUGAAUGGAGUUUAUCAUG [A40C A52G G80U C114G G128U G133U],≤ -4.2
5,GGAUCUUCUCGAUCUAACAAAAAAGACAAAUCUGCCACAAAGCUUGAGAGCAUCUUCGGGUGCAGAGGCGGCAGCCUUCGGUGGCGCGAUAGCUCCAACGUUCUCAACUAUGACACGCAAAACGCGUGCUCCGUUGAAUGGAGUUUAUCAUG [A60G G94U],-0.467
6,GGAUCUUCUCGAUCUAUCAAAAAAGACAAAUCUGCCACAAAGCUUGAGAGCAUCUUCGGAUGCAGAGGCGGUAGCCUUCGGUGGCGCGAUAGCGCCAAUGUUCUCAACUAUGACACGCAAAACGCGUGCUCCGUUGAAUGGAGUUUAUCAUG [A17U C72U C99U],-1.38
7,GGAUCUUCUCGAUCUAACAAAAAAGACAAAUCUGCCACAAAGCUUGAGAGCAUCUUCGGAUGCAGAGGCGGCAGCCUUCGGUAGCGCGAUAGCGCCAACGUUCUCAACUAUGACACGCAAAACGCGUGCUCCGUUGAAUGGAGUUUAUCAGG [G83A U151G],-3.97
8,GGAUCUUCUCGAUCUAACAAAAAAGAAAAAUCUGCCACAAAGCUUGAGAGCAUCUUCGGAUGCAGAGGCGGCAGCCUUCGGUGGCGUGAUAGCGCCAACGUUCUCAACUAUGACACGCAAAACGCGUGCUCCGUUGAAUGGAGUUUAUCAUG [C27A C87U],-3.91
9,GGAUCUUCUCGAUCUAACAAAAAAGACAAAUCUGCCACAAAGCUUGAGAGCAUCUUCGGAUGCAGAGGCGGCAACCUUCGGUGGCGCGAUAGCGCCAACGUUCUCAACUAUGACACGCAAAGCGCGUGCUCCGUUGAAUGGAGUUUAUCAUG [G74A A122G],-3.39
10,GGAUCUUCUCGAUCUAACAAAAAAGACAAAUCUGCAACAAAGCUUGAGAGCAUCUUCGGAUGCAGAGGCGGCAGCCGUCGCUGGCGCGAUAUCGCCAACGUUCUCAACUAUGACUCGCAAAACGCGUGCUCCGUUCAAUGGAGUUUAUCAUG [C36A U77G G81C G92U A115U G136C],≤ -4.2
11,GGAUCUUCUCGAUCUAACAAUAAAGACAAAACUGCCACAAAGCUUGAGAGCAUCUUCGGAUGCAGAGGCGGCAGCCUUCGGUGGAGCGAUAGCGCCAACGUUCUCAACUAUGACACGCAAAACGCGUGCUCCGUUGAAUGGAGUUUAUCAUG [A21U U31A C85A],-0.251
12,GGAUCUUCUCGAUCUAACAAAAAAGACAAAUCUGCCACAAAGCUUGAGAGCAUCUUCAGAUGCAGAGGCGGCAGCCUUCGGUGGCGCGAUAGCGCCAACGUUCUCAACUAUGACACGCAAAACGCGUGCUCCGUUGAAUGGAUUUUAUCAUG [G58A G143U],-1.82
13,GGAUCUUCUCGAUCUAACAAAAAAGACAAAUCUGCCACAUAGCUUGAGAGCAUCUUCGGAUGCAGAGGCGGCAGCCUUCGGUGGCGCGAUAGCGCCAACGUUCUCAACUAUGACACGCAUAACGCGUGCUCCCUUGAAUGGAGUUUAUCAUG [A40U A120U G133C],-1.72
14,GGAUCUUCUCGAUCUAACAAAAAAGACAAACCUGCCACAAAGCUUGAGAGCAUCUUCGGAUGCAGAGGCGGCAGCCUUCGGUGGCGCGAUAGCGCCAACGUUCUCAACUAUGACACGCAAAACGCGUGCUCCGUUGAAUGGAGUUUAUCAUG [U31C],0.947
15,GGAUCUUCUCGAUCUAACAAAAAAGACAAAUCUGCCACAAAGCUUGAGGGAACCUUCGGAUGCAGAGGCGGCAGCCUUCGGUGGCGGGAUAGCGCCAACGUUCUCAACUAUGACACGCAAAACGCGUGCUCCGUUGAAUGGAGUUUAUCAUG [A49G C51A U53C C87G],≤ -4.2
16,GGAUCUUCUCGAUCUAACAAAAAAGACAAAUCUGCCACAAAGCUUGAGAGCAUCUUCGGAUGCAGAGGCGGCAGCCUUCGGUGGCGCGAUAGUGCCAACGUUCUCAACUAUGACACGCAACACGCGUGCUCCGUUGAAUCGAGUUUAUCAUG [C93U A121C G140C],≤ -4.2
17,GGAUCUUCUCGAUCUAACAAAAAAGACAAAUCUGCCACAAAGCUUGAGAGCAUCUGCGGAUGCAGAGGCGGCAGCCUUCGGUGACGCGAUGGCGCCAACGUUCUCAACUAUGACGCGCAAAACGCGUGCUCCGUUGAAUGGAGUUUAUCAUG [U56G G84A A91G A115G],-4.1
18,GGAUCUUCUCGAUCUAAGAAAAAAGACAAAUCUGACACAAAGCUUCAGAGCAUCUUCCGAUGCAGAGGCGGCAGCCUUCGGUGGCGCGAUAGCGGCAACGUUCUCAACUAUGUCACGCAAAACGCGUGCUCCGUUGAAUGGAGUUUAUCAUG [C18G C35A G46C G58C C95G A113U],≤ -4.2
19,GGAUCUUCUCGAUCUAACAAAAAAGACAAAUCUGCCACAAAGCUUGAGAGUAUCUUCGGAUGCAGAGGCGGCAGCCUUCGGUGGCGCGAUAGGGCCAACGUUCUCAACUAUGACAUGCAAAACGCGUGCUCCGUUGAAUGAAGUUUAUCAUG [C51U C93G C116U G141A],-3.75
